Among the data in PMC8234197 are sulfite formation from MS− in a coupled reaction with MsuE (DTNB assay), wildtype under the conditions of the MsuD^ΔC–16 test (µmol/min/µmol enzyme), stoichiometry N and sulfite formation from MS− in a coupled reaction with MsuE (DTNB assay) (µmol/min/µmol enzyme) values, retold here.

In experiment [1] the target is alkanesulfonate monooxygenase MsuD from Pseudomonas fluorescens (wildtype) (Pseudomonas fluorescens).
The target is the same in experiment [2]. Description: crystal structure; cocrystal with FMN and MS− (P6_1, four chains per asymmetric unit); unliganded and FMN- or FMN/MS−-soaked crystals (P2_1, two tetramers per asymmetric unit).
Experiment [3] shares this target. The experiment is described as follows: SEC; analytical gel filtration, Enrich SEC 650 10 × 300 column, 4 °C, 50 mM sodium phosphate, 150 mM NaCl, pH 7.2, with high-molecular-weight standards. (In general: SEC sorts molecules by how far they enter the pores of the column.)
For experiment [4], the target named is MsuD^ΔC–16 (MsuD with the last 16 residues of the C terminus deleted) (Pseudomonas fluorescens).
Experiment [5] shares this target. The experiment is described as follows: SEC; analytical gel filtration, Enrich SEC 650 10 × 300 column, 4 °C, 50 mM sodium phosphate, 150 mM NaCl, pH 7.2, with high-molecular-weight standards.

For “alkanesulfonate monooxygenase MsuD from Pseudomonas fluorescens (wildtype) (enzyme)”, the sulfite formation from MS− in a coupled reaction with MsuE (DTNB assay), wildtype under the conditions of the MsuD^ΔC–16 test (µmol/min/µmol enzyme) in experiment [1] is 5.7. Besides, the stoichiometry N in experiment [2] and in experiment [3] was 4 throughout.

In turn, “MsuD^ΔC–16 (MsuD with the last 16 residues of the C terminus deleted) (domain or fragment)” yielded a sulfite formation from MS− in a coupled reaction with MsuE (DTNB assay) (µmol/min/µmol enzyme) in experiment [4] of 0.45. This substance also returned a stoichiometry N in experiment [5] of 2.

By stoichiometry N is commonly meant a count of units in the complex or per binding partner.
